US12037382

Assays:
[1] = target: US28 wild type, G protein-coupled receptor of human cytomegalovirus strain VHL/E (human cytomegalovirus strain VHL/E); assay: competition of unlabeled CCL5 against 125I-CCL5 on US28
[2] = target: US28 wild type, G protein-coupled receptor of human cytomegalovirus strain VHL/E (human cytomegalovirus strain VHL/E); assay: displacement of 125I-CCL5 from US28-expressing HEK293T membranes by unlabeled CCL5
[3] = target: US28 wild type, G protein-coupled receptor of human cytomegalovirus strain VHL/E (human cytomegalovirus strain VHL/E); assay: cell-based or functional assay

human chemokine CCL5, sequence (P13501 24-91 limits assumed): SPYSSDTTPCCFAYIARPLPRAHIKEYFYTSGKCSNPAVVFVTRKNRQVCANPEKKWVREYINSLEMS

Substance: human chemokine CCL5 (from UniProt P13501 24-91) (ligand)
- IC50 (read off the curve) [1]: 1 nM
- IC50 (read off the curve) [2]: 3 nM
- CCL5-induced accumulation of inositol phosphates (EC80) [3]: 31.6 nM
